Assay results taken from US20040116355A1 (CYTOVIA, published 2004).
* marks the point of attachment. Ethoxycarbonyl = CCOC(=O)*; CH2F = FC*

T1: rCaspase 3 (purchased from PharMingen) (UniProt P42574 29-277, limits assumed)
T1 sequence (looked up): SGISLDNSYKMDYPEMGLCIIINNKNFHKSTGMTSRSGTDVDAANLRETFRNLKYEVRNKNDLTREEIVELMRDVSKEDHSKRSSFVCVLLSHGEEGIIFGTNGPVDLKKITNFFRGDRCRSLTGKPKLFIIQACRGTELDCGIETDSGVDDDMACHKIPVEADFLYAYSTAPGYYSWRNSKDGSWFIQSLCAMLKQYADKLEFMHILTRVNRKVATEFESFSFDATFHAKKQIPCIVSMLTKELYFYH


Biological target: T1, rCaspase 3 (purchased from PharMingen)
Assay: cell-based or functional assay

| Binder | Caspase-3 IC50 (fluorometric enzyme assay, cleavage of 10 uM Ac-DEVD-AMC by 2 ng rCaspase 3) [nM] |
| --- | --- |
| cyclohexylmethoxycarbonyl-Val-Asp-CH2F [Cyclohexylmethoxycarbonyl-Val-Asp-fmk] | 72 |
| Ethoxycarbonyl-Val-Asp-CH2F (SMILES CCOC(=O)N[C@H](C(=O)N[C@@H](CC(=O)O)C(=O)CF)C(C)C) [Ethoxycarbonyl-Val-Asp-fmk] | 58 |
